Results reported in the supplement of paper PMC7877785.
± gives the uncertainty stated by the source.

Assay: self-splicing fitness, log relative to wild type (ln ratio); higher = more splicing; Tetrahymena group I intron in knt gene, E. coli kanamycin selection, DiMSum; sequences stand for … in CUCUCU…GGAGGGAAAAGUUAUCAGGCAUGCACCUGGUAGCUAGUCUUUAAACCAAUAGAUUGCAUCGGUUUAAAAGGCAAGACCGUCAAAUUGCGGGAAAGGGGUCAACAGCCGUUCAGUACCAAGUCUCAGGGGAAACUUUGAGAUGGCCUUGCAAAGGGUAUGGUAAUAAGCUGACGGACAUGGUCCUAACCACGCAGCCAAGUCCUAAGUCAACAGAUCUUCUGUUGAUAUGGAUGCAGUUCACAGACUAAAUGUCGGUCGGGGAAGAUGUAUUCUUCUCAUAAGAUAUAGUCGGACCUCUCCUUAAUGGGAGCUAGCGGAUGAAGUGAUGCAACACUGGAGCCGCUGGGAACUAAUUUGUAUGCGAAAGUAUAUUGAUUAGUUUUGGAGUACUCGUGGUCG
In short: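 The eight P1ex-region nucleotides of an intron in the knt kanamycin-resistance gene on pET-22b(+) were all randomised and the library put into E. coli BL21(DE3). Six replicate transformations were grown overnight at 37°C or 30°C on LB agar with or without 25 μg/mL kanamycin, together with 100 μg/mL carbenicillin, 50 μM IPTG and 0.2% rhamnose. Colonies were pooled and amplicon-sequenced on an Illumina HiSeq 2500. Fitness from DiMSum is the error-weighted combination of wild-type-normalised replicate fold changes, kanamycin over none.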

| Sequence | self-splicing fitness (ln) (30 °C) | self-splicing fitness (ln) (37 °C) |
| --- | --- | --- |
| GCCGAGCAAUAUUACGCCAU | -2.88 ± 0.23 | -2.5 ± 0.38 |
| GGUUAGCAAUAUUACGUUUG | -4.51 ± 0.34 | -1.42 ± 0.17 |
| GACGAGCAAUAUUACGACGG | -1.82 ± 0.28 | – |
| AUCAAGCAAUAUUACGUGUA | -2.39 ± 0.14 | -1.42 ± 0.12 |
| UGUGAGCAAUAUUACGUUCG | -3.41 ± 0.22 | -1.32 ± 0.15 |
| AGAGAGCAAUAUUACGCUUA | -2.39 ± 0.25 | -1.32 ± 0.23 |
| AGAGAGCAAUAUUACGGCAU | -2.39 ± 0.18 | -1.36 ± 0.18 |
| AAAGAGCAAUAUUACGGUAU | -3.02 ± 0.17 | -2.28 ± 0.15 |
| CUAGAGCAAUAUUACGGGUU | -4.2 ± 0.29 | -2.33 ± 0.23 |
| CUCCAGCAAUAUUACGAUAA | -3.22 ± 0.16 | -2.41 ± 0.18 |
| CGCGAGCAAUAUUACGAAGG | -2.81 ± 0.24 | -2.64 ± 0.27 |
| GACGAGCAAUAUUACGCUGC | – | -2.49 ± 0.49 |
| ACAGAGCAAUAUUACGUUGA | -2.69 ± 0.21 | -3.28 ± 0.27 |
| AGAAAGCAAUAUUACGACCA | -0.541 ± 0.11 | 0.144 ± 0.15 |
| AAGAAGCAAUAUUACGACUC | 0.456 ± 0.13 | 0.487 ± 0.18 |
| AAGCAGCAAUAUUACGCCUU | -2.42 ± 0.16 | -1.35 ± 0.12 |
| AAGCAGCAAUAUUACGGAGA | -2.7 ± 0.13 | -1.44 ± 0.13 |
| CGGGAGCAAUAUUACGGAAA | -3.53 ± 0.29 | – |
| AUCAAGCAAUAUUACGUCCU | -0.37 ± 0.088 | 0.533 ± 0.12 |
| GUUGAGCAAUAUUACGGUAG | -4.24 ± 0.46 | -1.94 ± 0.41 |
| UGGCAGCAAUAUUACGACCC | 0.0617 ± 0.19 | -0.655 ± 0.18 |

| Sequence | self-splicing fitness (ln) (30 °C) | self-splicing fitness (ln) (37 °C) |
| --- | --- | --- |
| UAUCAGCAAUAUUACGUGAA | -0.844 ± 0.083 | 0.371 ± 0.11 |
| UGCGAGCAAUAUUACGUUUC | – | -2.62 ± 0.36 |
| CCUCAGCAAUAUUACGGUCC | -4.07 ± 0.36 | – |
| CAUGAGCAAUAUUACGACGG | -0.356 ± 0.12 | -0.199 ± 0.17 |
| ACAGAGCAAUAUUACGAGGA | -3.04 ± 0.21 | -2.49 ± 0.23 |
| CUGUAGCAAUAUUACGGAUG | -3.23 ± 0.27 | -0.812 ± 0.18 |
| CAAGAGCAAUAUUACGGGCG | -0.815 ± 0.1 | -0.188 ± 0.12 |
| UGUUAGCAAUAUUACGGGCG | -0.142 ± 0.11 | 0.388 ± 0.12 |
| UCCGAGCAAUAUUACGUAUU | -1.95 ± 0.17 | -2.92 ± 0.43 |
| GAUGAGCAAUAUUACGUGAG | -2.88 ± 0.23 | -2.06 ± 0.28 |
| GUCAAGCAAUAUUACGCUUC | -4.61 ± 0.42 | -2.4 ± 0.25 |
| AGUCAGCAAUAUUACGCGGC | -3.02 ± 0.29 | – |
| AUACAGCAAUAUUACGCUCC | -1.47 ± 0.16 | -0.769 ± 0.21 |
| CCUCAGCAAUAUUACGCGUC | -4.16 ± 0.46 | -2.18 ± 0.34 |
| UACGAGCAAUAUUACGCACG | -2.94 ± 0.2 | -1.3 ± 0.18 |
| CCCUAGCAAUAUUACGGGUC | -3.26 ± 0.14 | -2.65 ± 0.2 |
| CCUCAGCAAUAUUACGUUUC | -3.04 ± 0.17 | -2.44 ± 0.2 |
| ACAGAGCAAUAUUACGAAAU | -2.57 ± 0.45 | -1.01 ± 0.29 |
| UGCUAGCAAUAUUACGUGGC | -3.1 ± 0.32 | -2.6 ± 0.35 |
| GUCCAGCAAUAUUACGCACU | -1.58 ± 0.082 | 0.818 ± 0.11 |
| GGUAAGCAAUAUUACGAUUC | -0.184 ± 0.14 | 0.0485 ± 0.14 |

| Sequence | self-splicing fitness (ln) (30 °C) | self-splicing fitness (ln) (37 °C) |
| --- | --- | --- |
| CGACAGCAAUAUUACGGCCU | -1.57 ± 0.13 | -0.3 ± 0.14 |
| CCUUAGCAAUAUUACGGUCU | -3.95 ± 0.25 | -3.77 ± 0.46 |
| AUCGAGCAAUAUUACGUUCC | -1.89 ± 0.24 | -2.02 ± 0.26 |
| UGGCAGCAAUAUUACGAAAG | -2.17 ± 0.14 | -1.19 ± 0.13 |
| GGCAAGCAAUAUUACGUCGA | -0.765 ± 0.13 | -0.561 ± 0.13 |
| ACGCAGCAAUAUUACGGGCC | -1.28 ± 0.091 | -0.893 ± 0.12 |
| UAAGAGCAAUAUUACGGCGU | -1.79 ± 0.13 | -2.39 ± 0.31 |
| GACUAGCAAUAUUACGUGAA | -0.567 ± 0.056 | -0.302 ± 0.083 |
| UUCCAGCAAUAUUACGUAGU | -1.32 ± 0.093 | -1.57 ± 0.12 |
| UCGCAGCAAUAUUACGGUGG | -3.36 ± 0.18 | -2.85 ± 0.21 |
| GACCAGCAAUAUUACGCUGC | -3.73 ± 0.22 | -1.32 ± 0.15 |
| GGAUAGCAAUAUUACGGGUA | -2.41 ± 0.16 | 0.0404 ± 0.13 |
| UUCCAGCAAUAUUACGUUGA | -1.63 ± 0.078 | -1.17 ± 0.092 |
| UGUGAGCAAUAUUACGACAU | -3.682 ± 0.033 | -2.45 ± 0.042 |
| GGGCAGCAAUAUUACGCAAA | -1.39 ± 0.099 | -0.884 ± 0.11 |
| CAGAAGCAAUAUUACGGCCC | -2.98 ± 0.44 | – |
| GUCAAGCAAUAUUACGGGUC | -3.45 ± 0.19 | -2.16 ± 0.18 |
| UGUGAGCAAUAUUACGUAGU | -2.87 ± 0.24 | -3.06 ± 0.35 |
| AAGCAGCAAUAUUACGGACA | -1.69 ± 0.16 | 0.0141 ± 0.11 |
| CCGAAGCAAUAUUACGCUCA | -3.65 ± 0.33 | -3.47 ± 0.42 |
